Measurements from patent US20160011195A1.

How the values were obtained:
[1] = molecular target: PLK1 (endogenous, in HeLa / HeLa-H2B-GFP cells) (human), P53350; test: cell-based or functional assay
[2] = molecular target: PLK1 PBD protein (residues 367-603) (human), P53350; test: competitive FP, displacement of fluorescein tracer SEQ ID NO: 7 from PLK1 PBD (367-603)
[3] = molecular target: PLK1 PBD protein (residues 367-603) (human), P53350; test: competitive FP

Sequence of PLK1 (endogenous, in HeLa / HeLa-H2B-GFP cells) (human), P53350 (P53350 2-603): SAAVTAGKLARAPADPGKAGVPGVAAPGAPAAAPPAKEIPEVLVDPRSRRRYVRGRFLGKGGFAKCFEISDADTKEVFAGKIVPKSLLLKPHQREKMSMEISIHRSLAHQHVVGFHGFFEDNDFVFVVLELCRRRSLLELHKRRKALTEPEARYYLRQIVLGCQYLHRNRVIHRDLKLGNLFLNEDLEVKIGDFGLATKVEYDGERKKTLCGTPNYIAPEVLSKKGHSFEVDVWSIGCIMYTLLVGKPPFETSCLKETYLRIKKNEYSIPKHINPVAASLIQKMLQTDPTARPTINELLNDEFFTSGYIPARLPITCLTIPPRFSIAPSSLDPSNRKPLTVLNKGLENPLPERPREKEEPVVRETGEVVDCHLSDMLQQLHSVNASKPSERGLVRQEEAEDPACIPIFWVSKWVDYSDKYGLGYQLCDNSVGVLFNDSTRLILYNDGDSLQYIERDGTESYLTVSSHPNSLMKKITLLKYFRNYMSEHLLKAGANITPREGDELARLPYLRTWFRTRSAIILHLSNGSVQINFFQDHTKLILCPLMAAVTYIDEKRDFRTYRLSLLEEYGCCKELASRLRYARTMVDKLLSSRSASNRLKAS
Sequence of PLK1 PBD protein (residues 367-603) (human), P53350 (P53350 367-603 limits assumed): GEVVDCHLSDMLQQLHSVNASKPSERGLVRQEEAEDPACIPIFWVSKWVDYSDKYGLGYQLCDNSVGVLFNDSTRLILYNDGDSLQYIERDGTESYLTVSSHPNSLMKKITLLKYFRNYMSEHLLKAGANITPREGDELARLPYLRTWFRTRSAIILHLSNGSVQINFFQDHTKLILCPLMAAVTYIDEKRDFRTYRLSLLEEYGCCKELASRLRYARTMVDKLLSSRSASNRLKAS

Question: PLHSTA (modifications not checked) [Ac-PLHS[pT]A (sample no. 5743)] was tested. Which Aberrant mitoses @ 24 hr, 30 mM [1] did it give?
Answer: 40.3%

Question: And the Apoptosis @24 hr [1]?
Answer: 34%

Question: What about the cells with mitotic abnormalities (10 µM) [1] of the same binder?
Answer: 32%

Question: And the relative fluorescence intensity of PLK1 staining at centrosomes (30 µM, HeLa-H2B-GFP) (arbitrary fluorescence units) [1]?
Answer: 33

Question: STPNGL (modifications not checked) [3G2-S[pT]PNGL (4-butylbenzoic acid) (Sample No. 5827)] was tested. Which Aberrant mitoses @ 24 hr [1] did it give?
Answer: 53.8%

Question: And the Apoptosis @24 hr [1]?
Answer: 55.5%

Question: What about the proportion of viable cells after 24 hours, 30 µM (Annexin V/PI) [1] of the same binder?
Answer: 45%

Question: With STPNGL (modifications not checked) [3G1-S[pT]PNGL (4-ethylbenzoic acid) (Sample No. 5788)] as the binder, how does the Aberrant mitoses @ 24 hr [1] read?
Answer: 47.9%

Question: And the Apoptosis @24 hr, 30 mM [1]?
Answer: 36.2%

Question: What about the proportion of viable cells after 24 hours, 30 µM (Annexin V/PI) [1] of the same binder?
Answer: 64%

Question: What about the relative fluorescence intensity of PLK1 staining at centrosomes (10 µM, HeLa-H2B-GFP) (arbitrary fluorescence units) [1] of the same binder?
Answer: 32

Question: What does the source list for LHSTAI (modifications not checked) [Ac-LHS[pT]AI (sample no. 5781)]?
Answer: aberrant metaphase (30 µM) [1]: 23%; decrease of the percentage of viable cells, 24 hours, 30 µM (Annexin V/PI) [1]: 30%; relative fluorescence intensity of PLK1 staining at centrosomes (30 µM, HeLa-H2B-GFP) (arbitrary fluorescence units) [1]: 35

Question: With LLCSTPNGL (modifications not checked) [Ac-LLCS[pT]PNGL (sample no. 5821)] as the binder, how does the fraction of viable cells after 24 hours, 30 µM (Annexin V/PI) [1] read?
Answer: 57%

Question: How did the aberrant prometaphase/metaphase features (30 µM) [1] turn out when LLCSTPNGL (modifications not checked) [LLCS[pT]PNGL, native phospho-CDC25c PBD binding sequence (sample no. 292)] was run?
Answer: 25%

Question: And the relative fluorescence intensity of PLK1 staining at centrosomes (HeLa-H2B-GFP) (arbitrary fluorescence units) [1]?
Answer: 45

Question: For LLAAAPNGL (modifications not checked) [… (sample no. 5783)], which aberrant prometaphase/metaphase features (30 µM) [1] is on record?
Answer: 9.5%

Question: For PLHSEA (modifications not checked) [Ac-PLHSEA (sample no. 5744)], which IC50 [2] is on record?
Answer: 500 µM

Question: With LLCSEPNGL (modifications not checked) [… (sample no. 345)] as the binder, how does the fold less potent (than the phosphothreonine sequence) [3] read?
Answer: 1000 fold

Question: What about the IC50 [2] of the same binder?
Answer: 350 µM

Question: For STPNGL (modifications not checked) [Sample No. 5591, fragment ligated inhibitor], which IC50 [2] is on record?
Answer: 375 µM

Question: For STPNGL (modifications not checked) [Sample No. 5593, fragment ligated inhibitor], which IC50 [2] is on record?
Answer: 380 µM

Question: For STPNGL (modifications not checked) [Sample No. 5595, fragment ligated inhibitor], which IC50 [2] is on record?
Answer: 475 µM

Question: Which IC50 [2] does the source give for STPNGL (modifications not checked) [Sample No. 5597, fragment ligated inhibitor] here?
Answer: 500 µM

Question: With STPNGL (modifications not checked) [Sample No. 5599, fragment ligated inhibitor] as the binder, how does the IC50 [2] read?
Answer: 600 µM

Question: STPNGL (modifications not checked) [Sample No. 5600, fragment ligated inhibitor] was tested. Which IC50 [2] did it give?
Answer: 550 µM

Question: Which IC50 [2] does the source give for STPNGL (modifications not checked) [Sample No. 5601, fragment ligated inhibitor] here?
Answer: 400 µM

Question: How did the IC50 [2] turn out when STPNGL (modifications not checked) [Sample No. 5604, fragment ligated inhibitor] was run?
Answer: 300 µM

Question: For STPNGL (modifications not checked) [Sample No. 5753, fragment ligated inhibitor], which IC50 [2] is on record?
Answer: 104 µM

Question: With STPNGL (modifications not checked) [Sample No. 5754, fragment ligated inhibitor (4-methoxybenzoic acid)] as the binder, how does the IC50 [2] read?
Answer: 125 µM

Question: STPNGL (modifications not checked) [Sample No. 5786, fragment ligated inhibitor (4-ethoxybenzoic acid)] was tested. Which IC50 [2] did it give?
Answer: 64.7 µM

Question: How did the IC50 [2] turn out when STPNGL (modifications not checked) [Sample No. 5791, fragment ligated inhibitor (4-(Methylthio) benzoic acid)] was run?
Answer: 18.5 µM

Question: How did the IC50 [2] turn out when STPNGL (modifications not checked) [Sample No. 5792, fragment ligated inhibitor (4-(Methylamino) benzoic acid)] was run?
Answer: 31.2 µM

Question: STPNGL (modifications not checked) [Sample No. 5826, fragment ligated inhibitor (4-propylbenzoic acid)] was tested. Which IC50 [2] did it give?
Answer: 10.8 µM

Question: Which IC50 [2] does the source give for STPNGL (modifications not checked) [Sample No. 5830, fragment ligated inhibitor (4-(Propylamino) benzoic acid)] here?
Answer: 16.5 µM
